Assay results from article PMC10303457 (2023).
No end group written: not given here.

Legend:
Assay in all cases: FP
[1] = biological target: Human IMPα5 aa 74–538 (lacking the IMPβ binding domain) (human, UniProt P52294 74-538)
[2] = biological target: T1, Human IMPα3 aa 64–521 (lacking the IMPβ binding domain) (human, UniProt O00629 64-521)
T1 chain: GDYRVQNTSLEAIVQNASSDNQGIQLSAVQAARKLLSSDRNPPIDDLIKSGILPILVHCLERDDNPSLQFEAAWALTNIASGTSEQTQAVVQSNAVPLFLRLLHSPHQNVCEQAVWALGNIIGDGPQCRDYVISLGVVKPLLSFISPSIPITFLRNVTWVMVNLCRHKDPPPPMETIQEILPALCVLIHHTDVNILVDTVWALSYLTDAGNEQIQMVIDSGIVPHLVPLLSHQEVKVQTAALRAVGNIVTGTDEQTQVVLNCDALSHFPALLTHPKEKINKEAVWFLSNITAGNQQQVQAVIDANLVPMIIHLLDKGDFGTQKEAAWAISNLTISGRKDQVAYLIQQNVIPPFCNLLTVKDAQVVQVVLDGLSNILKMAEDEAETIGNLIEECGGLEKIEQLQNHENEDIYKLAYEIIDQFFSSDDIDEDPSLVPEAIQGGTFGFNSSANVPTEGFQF

[3] = biological target: Human IMPα1 aa 71–529 (lacking the IMPβ binding domain) (human, UniProt P52292 71-529)

Human IMPα5 aa 74–538 (lacking the IMPβ binding domain), sequence (P52294 74-538): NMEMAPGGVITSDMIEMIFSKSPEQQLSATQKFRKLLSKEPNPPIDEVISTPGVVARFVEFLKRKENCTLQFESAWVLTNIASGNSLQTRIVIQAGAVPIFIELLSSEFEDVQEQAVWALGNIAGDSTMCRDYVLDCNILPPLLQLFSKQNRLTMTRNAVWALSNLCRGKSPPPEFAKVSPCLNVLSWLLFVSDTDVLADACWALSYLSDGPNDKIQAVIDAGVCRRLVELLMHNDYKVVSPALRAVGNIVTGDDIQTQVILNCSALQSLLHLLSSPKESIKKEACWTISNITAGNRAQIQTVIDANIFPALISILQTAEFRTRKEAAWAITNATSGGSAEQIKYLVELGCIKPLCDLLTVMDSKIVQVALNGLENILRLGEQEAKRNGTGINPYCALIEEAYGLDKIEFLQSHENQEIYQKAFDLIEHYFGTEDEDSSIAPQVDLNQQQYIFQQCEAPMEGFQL

With SGKRKKIRTIAAYPLGVGKS (also: FITC-labelled, site not given here) [FITC-labelled HeV M NLS1 peptide] the Kd [1] was 1.47 µM, the Kd [2] was 2.47 µM and the Kd [3] was 0.56 µM.

Binder VRRAGKYYSVEYCKRKID (also: FITC-labelled, site not given here) [FITC-labelled HeV M NLS2 peptide] has a Kd [2] of 11.5 µM.
